# B1: Azoarcus group I ribozyme (parent)
# chain: GUGCCUUGCGCCGGGAAACCACGCAAGGGAUGGUGUCAAAUUCGGCGAAACCUAAGCGCCCGCCCGGGCGUAUGGCAACGCCGAGCCAAGCUUCGGCGCCUGCGCCGAUGAAGGUGUAGAGACUAGACGGCACCCACCUAAGGCAAACGCUAUGGUGAAGGCAUAGUCCAGGGAGUGGCGAAAGUCACACAAACCGG
# Variants of: B1
# Assay: reverse-splicing fitness (ratio to wild type); higher = more active; in vitro selection; Mg2+ level not given
# Summary of the method: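 An in vitro group I ribozyme library with randomized positions was T7-transcribed and gel-purified. In triplicate, 10 pmol RNA in EPPS pH 7.5 was reacted with 50 pmoles of a 30-nt RNA substrate for 1 h at 37 °C across several added MgCl2 levels (1–48 mM), then stopped with EDTA. Products were reverse transcribed from a substrate-complementary primer, PCR-amplified and sequenced (HiSeq 4000). Fitness is a variant's read proportion after selection over that before, normalised to wild type.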
row,Variant,reverse-splicing fitness
1,C82A A111G C150A C169G U176C,0.0249
2,C82A A111U A120C A145C C150A C169A,0.01
3,C82A A111U A120C A145C C150A C169U,0.0111
4,C82A A111U A120C A145C C150A C169G,0.00947
5,C82A A111U A120C A145C C150U C169G U176C,0.0353
6,C82A A111U A120C A145C C150U C169G U176A,0.0356
7,C82A A111U A120C A145C C150G U176A,0.00531
8,C82A A111U A120C A145C C150G U176G,0.0032
9,C82A A111U A120C A145C C150G U176C,0.00974
10,C82A A111G C169A U176G,0.00616
11,C82A A111G C169A U176C,0.019
12,C82A A111G C169A U176A,0.0155
13,C82A A111G A145U C150A C169G U176G,0.00624
14,C82A A111G A145U C150A C169G U176A,0.0174
15,C82A A111G A145U C150A C169G U176C,0.016
16,C82A A111G A145U C150G C169G U176A,0.00771
17,C82A A111G A145U C150G C169G U176G,0.00584
18,C82A A111G A145U C150G C169G U176C,0.00567
19,C82A A111G C169U U176A,0.0153
20,C82A A111G C169U U176C,0.0142
21,C82A A111G C169U U176G,0.00547

row,Variant,reverse-splicing fitness
1,C82A A111G A120U C150U,0.0201
2,C82A A111G A145C C150G,0.0325
3,C82A A111G A145C C150A,0.018
4,C82A A111G A145C C150U,0.0851
5,C82A A111G C150A C169U U176A,0.0172
6,C82A A111G C150A C169U U176C,0.014
7,C82A A111G C150A C169U U176G,0.00815
8,C82A A111G A145C C150A C169G U176G,0.00722
9,C82A A111G A145C C150A C169G U176C,0.0145
10,C82A A111G A145C C150A C169G U176A,0.0291
11,C82A A111G A145U C150U U176G,0.0305
12,C82A A111G A145U C150U U176A,0.106
13,C82A A111G A145U C150U U176C,0.166
14,C82A A111G A145G C169A U176A,0.0201
15,C82A A111G A145G C169A U176C,0.0253
16,C82A A111G A145G C169A U176G,0.00591
17,C82A A111G A145C C150A C169U,0.0104
18,C82A A111G A145C C150A C169G,0.00918
19,C82A A111G A145C C150A C169A,0.00955
20,C82A A111G A145G C150U,0.32
21,C82A A111G A145G C150G,0.0329

row,Variant,reverse-splicing fitness
1,C82A A111G A145G C150A,0.0514
2,C82A A111G A120U C150G C169U U176C,0.00511
3,C82A A111G A120U C150G C169U U176G,0.00249
4,C82A A111G C150G,0.024
5,C82A A111G C150A,0.0352
6,C82A A111G C150U,0.205
7,C82A A111U A120C A145C C150U C169A U176G,0.00873
8,C82A A111U A120C A145C C150U C169A U176C,0.0162
9,C82A A111U A120C A145C C150U C169A U176A,0.0182
10,C82A A111G A145U U176A,0.179
11,C82A A111G A145U U176G,0.0692
12,C82A A111G A145U U176C,0.249
13,C82A A111G A120U C150U C169U U176G,0.00221
14,C82A A111G A120U C150U C169U U176C,0.00428
15,C82A A111G A120U C150U C169U U176A,0.00475
16,C82A A111G A145U C169G U176C,0.0131
17,C82A A111G A145U C169G U176A,0.011
18,C82A A111G A145U C169G U176G,0.00511
19,C82A A111G A145G C150U C169A U176C,0.0181
20,C82A A111G A145G C150U C169A U176G,0.00696
21,C82A A111G A145G C150U C169A U176A,0.0167

row,Variant,reverse-splicing fitness
1,C82A A111G C150A C169A U176A,0.0203
2,C82A A111G C150A C169A U176C,0.0218
3,C82A A111G C150A C169A U176G,0.0074
4,C82A A111G A145G C150A C169A U176C,0.0215
5,C82A A111G A145G C150A C169A U176G,0.00749
6,C82A A111G A145G C150A C169A U176A,0.0216
7,C82A A111G A145U C150G U176G,0.0047
8,C82A A111G A145U C150G U176A,0.00973
9,C82A A111G A145U C150G U176C,0.0181
10,C82A A111G A145C U176G,0.0484
11,C82A A111G A145C U176C,0.248
12,C82A A111G A145C U176A,0.181
13,C82A A111G A145U C150A C169U U176G,0.00627
14,C82A A111G A145U C150A C169U U176C,0.0109
15,C82A A111G A145U C150A C169U U176A,0.0132
16,C82A A111G A145U C150U C169A,0.00951
17,C82A A111G A145U C150U C169G,0.00926
18,C82A A111G A145U C150U C169U,0.0118
19,C82A A111G A145C C150G C169A U176G,0.00658
20,C82A A111G A145C C150G C169A U176A,0.00847
21,C82A A111G A145C C150G C169A U176C,0.00805
